Measurements taken from patent US11306331B2, “Processes for the production of hydroxycinnamic acids using polypeptides having tyrosine ammonia lyase activity” (CysBio ApS, priority 2014, dated 2022).

T1: Rhodobacter sphaeroides RsTAL (Protein GI 126464011), His-tagged (N-terminal tag SEQ ID NO: 11) (Cereibacter sphaeroides, UniProt Q3IWB0)
T1 sequence (Q3IWB0 1-523): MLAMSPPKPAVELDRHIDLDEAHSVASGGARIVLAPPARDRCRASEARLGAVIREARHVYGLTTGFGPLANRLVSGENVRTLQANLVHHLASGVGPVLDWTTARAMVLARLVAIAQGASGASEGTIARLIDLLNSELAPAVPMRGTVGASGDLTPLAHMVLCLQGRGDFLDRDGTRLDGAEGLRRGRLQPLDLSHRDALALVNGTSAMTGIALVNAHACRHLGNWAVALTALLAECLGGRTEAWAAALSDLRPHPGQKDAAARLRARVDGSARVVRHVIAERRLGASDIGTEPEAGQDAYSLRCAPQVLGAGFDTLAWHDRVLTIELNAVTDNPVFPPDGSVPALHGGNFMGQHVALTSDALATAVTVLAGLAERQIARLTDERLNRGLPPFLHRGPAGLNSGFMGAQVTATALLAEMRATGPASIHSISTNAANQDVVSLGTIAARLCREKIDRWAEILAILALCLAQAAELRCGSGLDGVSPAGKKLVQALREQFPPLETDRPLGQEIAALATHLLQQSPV

B1: Flavobacterium johnsoniae FjXAL tyrosine ammonia lyase (Protein GI 146298870), SEQ ID NO: 1, His-tagged (N-terminal tag SEQ ID NO: 11) (Flavobacterium … (protein)
chain: MNTINEYLSLEEFEAIIFGNQKVTISDVVVNRVNESFNFLKEFSGNKVIYGVNTGFGPMAQYRIKESDQIQLQYNLIRSHSSGTGKPLSPVCAKAAILARLNTLSLGNSGVHPSVINLMSELINKDITPLIFEHGGVGASGDLVQLSHLALVLIGEGEVFYKGERRPTPEVFEIEGLKPIQVEIREGLALINGTSVMTGIGVVNVYHAKKLLDWSLKSSCAINELVQAYDDHFSAELNQTKRHKGQQEIALKMRQNLSDSTLIRKREDHLYSGENTEEIFKEKVQEYYSLRCVPQILGPVLETINNVASILEDEFNSANDNPIIDVKNQHVYHGGNFHGDYISLEMDKLKIVITKLTMLAERQLNYLLNSKINELLPPFVNLGTLGFNFGMQGVQFTATSTTAESQMLSNPMYVHSIPNNNDNQDIVSMGTNSAVITSKVIENAFEVLAIEMITIVQAIDYLGQKDKISSVSKKWYDEIRNIIPTFKEDQVMYPFVQKVKDHLINN

Experiments:
[1] = target: T1, Rhodobacter sphaeroides RsTAL (Protein GI 126464011), His-tagged (N-terminal tag SEQ ID NO: 11); assay: In vitro kinetics of purified His-tagged RsTAL (tyrosine/phenylalanine ammonia lyase activity, absorbance at 315/295 nm)
Method: Four of the enzymes were further purified by His-tag purification as follows.
Strains expressing His-tagged versions of the enzymes were grown in LB media overnight at 37° C. and diluted into fresh LB media with 1 mM IPTG and growth was propagated overnight (approximately 18 h) at 30° C. Cells were harvested by centrifugation at 8000 rpm for 8 minutes, and disrupted by shearing into a buffer (50 mM Tris-HCl, 10 mM imidazole, 500 mM NaCl, 10% glycerol, pH 7.5). The homogenate was clarified by centrifugation at 10000 g for 10 min at 4° C., and the supernatant was loaded onto Ni2+-NTA resin column on an Äkta Pure system connected to a F9-C fraction collector (GE). Finally the fractions containing the purified polypeptide was dialyzed overnight against a buffer containing 50 mM Tris-HCl pH 7.5, 150 mM NaCl and 10% glycerol, flash-frozen in liquid nitrogen and stored at −80° C.
Enzymatic assays were performed in 200 μL volumes in wells in a UV transparent 96-well plate, by following the increase in absorbance at 315 nm (pHCA) or 295 nm (CA). The reaction mixtures contained 2 μg of purified protein and were initiated by adding 1 mM tyrosine or 6 mM after equilibration to 30° C. The enzymatic activity was calculated as U/g, where U is defined as μmol substrate converted per minute.

[2] = tested on: L. lactis NZ9000ΔldhΔldhB; assay: Specific pHCA and CA productivity of L. lactis strains expressing TAL/PAL enzymes in CDM; type: cell-based, Lactococcus lactis
Source text: The synthetic RsXALI (protein GI 129592) and RmXALI (protein GI 126464011) genes, codon optimized for Lactococcus lactis (GeneArt), were cloned into the nisin inducible expression vector pNZ8048 (Kuipers et al., 1998) as follows: RsXALI (SEQ ID NO: 56) and RmXALI (SEQ ID NO: 57) genes and the vector were PCR amplified using the primers listed in Table 7, and were assembled in a single-tube isothermal reaction using the Gibson Assembly Master Mix (New England Biolabs). Reaction products were ethanol-precipitated and suspended in double distilled water before transformation into L. lactis by electroporation as described by Holo and Nes (1995). The synthetic genes encoding SeSam8, R_XAL, HaXAL1 and FjXAL described in a previous example above were amplified by PCR using the primer pairs listed in Table 1, digested with specific restriction enzymes, and cloned in-between the NcoI and XbaI restriction sites of pNZ8048. The plasmids were obtained and maintained in L. lactis NZ9000 (Kuipers et al., 1998) and the gene sequences of the different constructs were verified by sequencing.
To assess pHCA production, TAL-expression vectors were transformed into a strain derived from NZ9000, but with deletion of the genes Idh and dhB (NZ9000ΔldhΔldhB). A control strain was also constructed by transformation of NZ9000ΔldhΔldhB with empty expression vector pNZ8048.
For molecular biology procedures, L. lactis strains were cultivated as batch cultures (flasks) without aeration in M17 medium (Difco™, USA) supplemented with 0.5% glucose (w/v) at 30° C. To assess pHCA production, strains were grown as static cultures in chemically defined medium (CDM; Poolman and Konings, 1988) containing 1% glucose (wt/vol) without pH control (initial pH 6.5 or 7.0) and supplemented with 1.7 or 3.7 mM L-tyrosine. Plasmid selection was achieved by addition of 5 μg mL^−1 chloramphenicol to the growth medium. Growth was monitored by measuring OD600. For heterologous expression of cloned tyrosine ammonia lyases, L. lactis strains were grown in CDM and nisin (1.5 μg L^−1) was added at an OD600 of 0.3-0.4. Samples (1 mL) of cultures were collected at different points during growth; centrifuged (16,100×g, 10 min, 4° C.) and the supernatants stored at −20° C. until analysis by HPLC as described in a previous example above. […] The first six columns are results from media containing 1.7 mM tyrosine. The seventh and ninth columns represent samples from strains grown in media containing 3.7 mM tyrosine, and the eighth and ninth columns are data from media with 68.5 mM 3-(N-morpholino)propanesulfonic acid (MOPS) and initial pH adjusted to 7.0 rather than 6.5.

Molecule | Kcat ([1]; 30° C, 1.56 μM to 200 μM tyrosine or 193 μM to 25 mM phenylalanine) [s⁻¹] | TAL/PAL ([1]; ratio of Kcat/Km for Tyr over Phe) | increase in specific production of pHCA over RmXALI, the second-best enzyme ([2]; CDM, 1.7 mM tyrosine) | Specific production of pHCA ([2]; CDM, 1.7 mM tyrosine, initial pH 6.5) [μM OD600^−1] | specific productivity of pHCA ([2]; tyrosine increased from 1.7 mM to 3.7 mM and/or pH increased from 6.5 to 7.0) [μMD600^−1]
N[C@@H](Cc1ccc(O)cc1)C(=O)O [Tyr, tyrosine] | 0.173 | 125 |  |  | 
B1 |  |  | five-fold increase | 15 | 24
